Starred links: 1 amine or outer side, 2 acyl side, 3 side chain; linkers in the order of their positions; H or OH if unused. Positions of bridges follow the written chain, without caps; N, C: chain ends. Non-standard residues stand in square brackets, D forms with d. Primed or numbered codes have the meaning given here. PyrS2″ = (S)-3-amino-1-((pent-4-en-1-yloxy)carbonyl)pyrrolidine-3-carboxylic acid (stapling residue), C=CCCCOC(=O)N1CC[C@@](N[*:1])(C(=O)[*:2])C1; B5(4) = 2,2-bis(4-pentenyl)glycine = 2-amino-2-(pent-4-en-1-yl)hept-6-enoic acid (stitching residue), C=CCCCC(CCCC=C)(N[*:1])C(=O)[*:2]; B5(5) = 2,2-bis(4-pentenyl)glycine, 2-amino-2-(pent-4-en-1-yl)hept-6-enoic acid (stitching residue), C=CCCCC(CCCC=C)(N[*:1])C(=O)[*:2]; TfeGA = (S)-2-amino-3-((carboxymethyl)(2,2,2-trifluoroethyl)amino)propanoic acid, O=C([C@H](CN(CC(=O)[*:3])CC(F)(F)F)N[*:1])[*:2]; PyrS2 = (S)-3-amino-1-((pent-4-en-1-yloxy)carbonyl)pyrrolidine-3-carboxylic acid, C=CCCCOC(=O)N1CC[C@@](N[*:1])(C(=O)[*:2])C1; SPip2 = 4-amino-1-((pent-4-en-1-yloxy)carbonyl)piperidine-4-carboxylic acid, C=CCCCOC(=O)N1CCC(N[*:1])(C(=O)[*:2])CC1; 2COOHF = (S)-2-(2-amino-2-carboxyethyl)benzoic acid, O=C([C@H](Cc1ccccc1C(=O)[*:3])N[*:1])[*:2]; B5(3) = 2,2-bis(4-pentenyl)glycine (stitching residue), C=CCCCC(CCCC=C)(N[*:1])C(=O)[*:2]; B5 = 2-amino-2-(pent-4-en-1-yl)hept-6-enoic acid, C=CCCCC(CCCC=C)(N[*:1])C(=O)[*:2]; Phe(3-COOH) = N[C@@H](Cc1cccc(C(=O)O)c1)C(=O)O; 2F3MeF = Cc1cccc(C[C@H](N[*:1])C(=O)[*:2])c1F; Phe(2-Cl) = N[C@@H](Cc1ccccc1Cl)C(=O)O; Bta = N[C@@H](Cc1csc2ccccc12)C(=O)O; Lys(iPr) = CC(C)NCCCC[C@H](N)C(=O)O; αAllylPro = C=CC[C@@]1(C(=O)O)CCCN1; tBuAla = CC(C)(C)C[C@H](N)C(=O)O; 3Thi = N[C@@H](Cc1ccsc1)C(=O)O; Aad = N[C@@H](CCCC(=O)O)C(=O)O; Cha = N[C@@H](CC1CCCCC1)C(=O)O; Cit = NC(=O)NCCC[C@H](N)C(=O)O; S8 = C=CCCCCCC[C@](C)(N)C(=O)O; Aib = CC(C)(N)C(=O)O
B1: I-2578 (peptide)
peptide: Ac-[αAllylPro]D[tBuAla][B5]D[Phe(3-COOH)][Aib]AFK(Ac)[PyrS2][3Thi][Bta]AA-NH2
modifications: staple 1-4, 4-11; not fully specified; printed as Ac-PL3-Asp-Npg-B5-Asp-3COOHF-Aib-Ala-Phe-AcLys-PyrS2-3Thi-BztA-Ala-Ala-NH2
B2: I-839 (peptide)
peptide: Ac-[αAllylPro]D[tBuAla][B5(3)]DQAAFN[PyrS2″][3Thi][Bta]H-NH2
modifications: staple 1-4, 4-11
B3: I-838 (peptide)
peptide: Ac-[αAllylPro]D[tBuAla][B5(3)]DQAAFN[PyrS2″][3Thi][Bta]Q-NH2
modifications: staple 1-4, 4-11
B4: I-841 (peptide)
peptide: Ac-[αAllylPro]D[tBuAla][B5(3)]D[Cit]AAFN[PyrS2″][3Thi][Bta]H-NH2
modifications: staple 1-4, 4-11
B5: I-837 (peptide)
peptide: Ac-[αAllylPro]D[tBuAla][B5(3)]DNAAFN[PyrS2″][3Thi][Bta]H-NH2
modifications: staple 1-4, 4-11
B6: I-842 (peptide)
peptide: Ac-[αAllylPro]D[tBuAla][B5(3)]DYAAFN[PyrS2″][3Thi][Bta]Q-NH2
modifications: staple 1-4, 4-11
B7: I-1648 (peptide)
peptide: Ac-[αAllylPro]N[Cha][B5(4)]DQ[Lys(iPr)]AFL[PyrS2]F[Bta]Q-NH2
modifications: staple 1-4, 4-11
B8: I-1657 (peptide)
peptide: Ac-[αAllylPro]D[tBuAla][B5(5)]D[2COOHF]AAFF[PyrS2″][Phe(2-Cl)][Bta]Q-NH2
modifications: staple 1-4, 4-11
B9: I-1655 (peptide)
peptide: Ac-[αAllylPro]D[tBuAla][B5(5)]D[2COOHF]AAFF[PyrS2″][2F3MeF][Bta]Q-NH2
modifications: staple 1-4, 4-11
B10: I-611 (peptide)
peptide: Ac-[αAllylPro]DI[B5]D[TfeGA]AAFQ[S8]F[Bta]Q-NH2
modifications: staple 1-4, 4-11; also: later-eluting staple isomer
B11: I-612 (peptide)
peptide: Ac-[αAllylPro]DI[B5]D[Aad]AAFQ[S8]F[Bta]Q-NH2
modifications: staple 1-4, 4-11
B12: I-2592 (peptide)
peptide: Ac-[αAllylPro]D[tBuAla][B5]D[Phe(3-COOH)]QAFL[SPip2][3Thi][Bta]A-NH2
modifications: staple 1-4; staple 4-11 (inferred); also: earlier-eluting HPLC staple isomer composition

The binders below were run against full-length beta-Catenin (Uniprot ID P35222) (Homo sapiens (Human)) (UniProt P35222) (assay: cell-based or functional assay).
Target sequence in this assay (P35222 whole entry, the tested form may be a part): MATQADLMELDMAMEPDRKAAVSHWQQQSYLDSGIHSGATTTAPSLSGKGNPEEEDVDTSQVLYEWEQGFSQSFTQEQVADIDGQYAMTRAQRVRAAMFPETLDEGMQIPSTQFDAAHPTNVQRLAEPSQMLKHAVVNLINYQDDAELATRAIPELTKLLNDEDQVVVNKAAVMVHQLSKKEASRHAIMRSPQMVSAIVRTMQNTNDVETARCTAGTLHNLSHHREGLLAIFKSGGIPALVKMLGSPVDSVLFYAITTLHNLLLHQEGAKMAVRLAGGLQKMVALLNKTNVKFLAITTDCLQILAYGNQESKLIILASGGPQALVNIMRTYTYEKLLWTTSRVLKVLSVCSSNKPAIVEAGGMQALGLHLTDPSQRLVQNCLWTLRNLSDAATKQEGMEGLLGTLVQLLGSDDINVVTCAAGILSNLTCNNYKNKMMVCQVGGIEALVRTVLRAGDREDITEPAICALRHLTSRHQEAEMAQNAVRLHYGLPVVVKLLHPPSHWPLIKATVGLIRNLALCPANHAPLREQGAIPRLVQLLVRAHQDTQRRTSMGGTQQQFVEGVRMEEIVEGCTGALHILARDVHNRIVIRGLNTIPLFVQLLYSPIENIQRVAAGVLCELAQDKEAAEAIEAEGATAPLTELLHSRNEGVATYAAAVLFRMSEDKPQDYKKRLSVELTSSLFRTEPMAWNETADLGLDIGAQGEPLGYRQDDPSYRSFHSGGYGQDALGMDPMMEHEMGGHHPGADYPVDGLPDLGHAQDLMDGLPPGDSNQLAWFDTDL

DLD1 4% Abs IC50	Binder
4100 nM	B1

What follows are binders tested against full-length beta-Catenin (Uniprot ID P35222) (Homo sapiens (Human)) (UniProt P35222) (assay: fluorescence polarization competition; displacement of 5FAM-TCF4(10-53) from full-length beta-catenin).
Target sequence in this assay (P35222 whole entry, the tested form may be a part): as above

IC50	Binder
7 nM	B2
12 nM	B3
12 nM	B4
5 nM	B5
34 nM	B6

The binders below were run against Bcat-Halo (UniProt P35222) (assay: NanoBRET in HEK293 cells, Bcat-Halo / TCF4-Luc; absolute IC50).
Chain of Bcat-Halo (P35222 whole entry): as the sequence (P35222 whole entry, the tested form may be a part) above

IC50	Binder
> 20000 nM	B7
11000 nM	B8
12700 nM	B9

What follows are binders tested against full-length beta-Catenin (Uniprot ID P35222) (Homo sapiens (Human)) (UniProt P35222) (assay: fluorescence polarization competition; peptide titrated against 10 nM full-length beta-catenin + 10 nM 5FAM-TCF4(10-53) probe).
Target sequence in this assay (P35222 whole entry, the tested form may be a part): as above

EC50	Binder
55 nM	B10
64 nM	B11

The binders below were run against full-length beta-Catenin (Uniprot ID P35222) (Homo sapiens (Human)) (UniProt P35222) (assay: fluorescence polarization competition; full-length beta-catenin, 5FAM-TCF4 10-53 probe as competitor).
Target sequence in this assay (P35222 whole entry, the tested form may be a part): as above

IC50	Binder
5 nM	B1
37 nM	B12

The binders below were run against full-length beta-Catenin (Uniprot ID P35222) (Homo sapiens (Human)) (UniProt P35222) (assay: fluorescence polarization competition; full-length beta-catenin, 5FAM-TCF4 10-53 probe).
Target sequence in this assay (P35222 whole entry, the tested form may be a part): as above

IC50	Binder
55 nM	B10
64 nM	B11

Each binder was assayed against full-length beta-Catenin (Uniprot ID P35222) (Homo sapiens (Human)) (UniProt P35222) (assay: fluorescence polarization competition; 10 nM full-length beta-catenin with 10 nM 5FAM-TCF4 (residues 10-53) probe as competitor).
Target sequence in this assay (P35222 2-781 limits assumed): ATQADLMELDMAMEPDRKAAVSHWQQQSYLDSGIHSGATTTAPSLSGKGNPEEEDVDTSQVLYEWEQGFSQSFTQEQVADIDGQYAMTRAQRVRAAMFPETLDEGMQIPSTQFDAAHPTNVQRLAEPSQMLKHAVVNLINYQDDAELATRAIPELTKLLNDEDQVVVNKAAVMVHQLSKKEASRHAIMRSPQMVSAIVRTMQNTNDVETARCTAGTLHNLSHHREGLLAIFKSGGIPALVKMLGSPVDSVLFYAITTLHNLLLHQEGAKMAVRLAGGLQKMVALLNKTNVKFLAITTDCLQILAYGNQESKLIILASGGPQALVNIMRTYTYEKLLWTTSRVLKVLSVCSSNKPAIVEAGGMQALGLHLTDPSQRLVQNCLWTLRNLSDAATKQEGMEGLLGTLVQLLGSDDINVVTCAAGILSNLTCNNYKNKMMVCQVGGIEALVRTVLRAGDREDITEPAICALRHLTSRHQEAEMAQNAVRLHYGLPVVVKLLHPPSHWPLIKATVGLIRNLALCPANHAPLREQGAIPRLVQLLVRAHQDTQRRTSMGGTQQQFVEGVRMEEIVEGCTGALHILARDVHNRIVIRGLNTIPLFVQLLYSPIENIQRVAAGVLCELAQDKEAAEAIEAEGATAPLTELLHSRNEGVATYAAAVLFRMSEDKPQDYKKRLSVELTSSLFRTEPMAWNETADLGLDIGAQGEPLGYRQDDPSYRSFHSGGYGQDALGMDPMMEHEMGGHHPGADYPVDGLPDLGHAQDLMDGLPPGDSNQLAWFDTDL

EC50	Binder
7 nM	B2
12 nM	B3
12 nM	B4
5 nM	B5
34 nM	B6

What follows are binders tested against Bcat-Halo (beta-catenin HaloTag construct expressed in HEK293 cells) (UniProt P35222) (assay: NanoBRET Abs IC50 in HEK293 cells; Bcat-Halo with TCF4-Luc as competitor).
Chain of Bcat-Halo (beta-catenin HaloTag construct expressed in HEK293 cells) (P35222 whole entry): as the sequence (P35222 whole entry, the tested form may be a part) above

IC50	Binder
41900 nM	B2
17400 nM	B3
34400 nM	B4
23800 nM	B5
47900 nM	B6

The binders below were run against full-length beta-Catenin (Uniprot ID P35222) (Homo sapiens (Human)) (UniProt P35222) (assay: fluorescence polarization competition; 10 nM full-length beta-catenin, 10 nM 5FAM-TCF4(10-53) probe).
Target sequence in this assay (P35222 2-781 limits assumed): as the sequence (P35222 2-781 limits assumed) above

IC50	Binder
191 nM	B7
36 nM	B8
48 nM	B9

Each binder was assayed against full-length beta-Catenin (Uniprot ID P35222) (Homo sapiens (Human)) (UniProt P35222) (assay: fluorescence polarization competition; full-length beta-catenin with 5FAM-TCF4(10-53) probe as competitor).
Target sequence in this assay (P35222 whole entry, the tested form may be a part): as the sequence (P35222 whole entry, the tested form may be a part) above

IC50	Binder
55 nM	B10
64 nM	B11

Each binder was assayed against Bcat-Halo (UniProt P35222) (assay: NanoBRET Abs IC50; B-cat-Halo / TCF4-Luc engagement in HEK293 cells).

IC50	Binder
5500 nM	B1
> 20000 nM	B12
